The labels stand for the following.
B1: 102 (Fab-Knob-CEA+Hole) (bispecific antibody, human IgG4 S228P, kappa, F234A L235A)
heavy: EVKLLESGGGLVQPKGSLKLSCAASGFTFNTYAMNWVRQAPGKGLEWVARIRSKYNNYATYYADSVKDRFTISRDDSQSILYLQMNNLKTEDTAMYYCVRHGNFGNSYVSWFAYWGQGTLVTVSSASTKGPSVFPLAPCSRSTSESTAALGCLVKDYFPEPVTVSWNSGALTSGVHTFPAVLQSSGLYSLSSVVTVPSSSLGTKTYTCNVDHKPSNTKVDKRVESKYGPPCPPCPAPEAAGGPSVFLFPPKPKDTLMISRTPEVTCVVVDVSQEDPEVQFNWYVDGVEVHNAKTKPREEQFNSTYRVVSVLTVLHQDWLNGKEYKCKVSNKGLPSSIEKTISKAKGQPREPQVYTLPPCQEEMTKNQVSLWCLVKGFYPSDIAVEWESNGQPENNYKTTPPVLDSDGSFFLYSRLTVDKSRWQEGNVFSCSVMHEALHNHYTQKSLSLSLGGGGSGGGGSEVQLVESGGGFVQAGESLTLSCTSSTLTFTPYRMAWYRQAPGKQRDLVADISSGDGRTTNYADFAKGRFTISRDNIKNTVFLRMTNLKPEDTAVYYCNTFVSFVGIARSWGQGTQVTVSS
chain: ESKYGPPCPPCPAPEAAGGPSVFLFPPKPKDTLMISRTPEVTCVVVDVSQEDPEVQFNWYVDGVEVHNAKTKPREEQFNSTYRVVSVLTVLHQDWLNGKEYKCKVSNKGLPSSIEKTISKAKGQPREPQVCTLPPSQEEMTKNQVSLSCAVKGFYPSDIAVEWESNGQPENNYKTTPPVLDSDGSFFLVSRLTVDKSRWQEGNVFSCSVMHEALHNRFTQKSLSLSL
light: QAVVTQESALTTSPGETVTLTCRSSTGAVTTSNYANWVQEKPDHLFTGLIGGTNKRAPGVPARFSGSLIGDKAALTITGAQTEDEAIYFCALWYSNLWVFGGGTKVEIKRTVAAPSVFIFPPSDEQLKSGTASVVCLLNNFYPREAKVQWKVDNALQSGNSQESVTEQDSKDSTYSLSSTLTLSKADYEKHKVYACEVTHQGLSSPVTKSFNRGEC
notes: TA1 Fab, C17 VHH, IgG4 Fc KIH
B2: 107 (CEA-Knob-Fab-+Hole) (bispecific antibody, human IgG4 S228P, kappa, F234A L235A)
heavy: EVQLVESGGGFVQAGESLTLSCTSSTLTFTPYRMAWYRQAPGKQRDLVADISSGDGRTTNYADFAKGRFTISRDNIKNTVFLRMTNLKPEDTAVYYCNTFVSFVGIARSWGQGTQVTVSSESKYGPPCPPCPAPEAAGGPSVFLFPPKPKDTLMISRTPEVTCVVVDVSQEDPEVQFNWYVDGVEVHNAKTKPREEQFNSTYRVVSVLTVLHQDWLNGKEYKCKVSNKGLPSSIEKTISKAKGQPREPQVYTLPPCQEEMTKNQVSLWCLVKGFYPSDIAVEWESNGQPENNYKTTPPVLDSDGSFFLYSRLTVDKSRWQEGNVFSCSVMHEALHNHYTQKSLSLSLGGGGSGGGGEVKLLESGGGLVQPKGSLKLSCAASGFTFNTYAMNWVRQAPGKGLEWVARIRSKYNNYATYYADSVKDRFTISRDDSQSILYLQMNNLKTEDTAMYYCVRHGNFGNSYVSWFAYWGQGTLVTVSSASTKGPSVFPLAPCSRSTSESTAALGCLVKDYFPEPVTVSWNSGALTSGVHTFPAVLQSSGLYSLSSVVTVPSSSLGTKTYTCNVDHKPSNTKVDKRV
chain: B1 chain
light: B1 light
notes: TA1 Fab, C17 VHH, IgG4 Fc KIH
B3: 105 (Knob-CEA+Fab-Hole) (bispecific antibody, human IgG4 S228P, kappa, F234A L235A)
chain: ESKYGPPCPPCPAPEAAGGPSVFLFPPKPKDTLMISRTPEVTCVVVDVSQEDPEVQFNWYVDGVEVHNAKTKPREEQFNSTYRVVSVLTVLHQDWLNGKEYKCKVSNKGLPSSIEKTISKAKGQPREPQVYTLPPCQEEMTKNQVSLWCLVKGFYPSDIAVEWESNGQPENNYKTTPPVLDSDGSFFLYSRLTVDKSRWQEGNVFSCSVMHEALHNHYTQKSLSLSLGGGGSGGGGSEVQLVESGGGFVQAGESLTLSCTSSTLTFTPYRMAWYRQAPGKQRDLVADISSGDGRTTNYADFAKGRFTISRDNIKNTVFLRMTNLKPEDTAVYYCNTFVSFVGIARSWGQGTQVTVSS
heavy: EVKLLESGGGLVQPKGSLKLSCAASGFTFNTYAMNWVRQAPGKGLEWVARIRSKYNNYATYYADSVKDRFTISRDDSQSILYLQMNNLKTEDTAMYYCVRHGNFGNSYVSWFAYWGQGTLVTVSSASTKGPSVFPLAPCSRSTSESTAALGCLVKDYFPEPVTVSWNSGALTSGVHTFPAVLQSSGLYSLSSVVTVPSSSLGTKTYTCNVDHKPSNTKVDKRVESKYGPPCPPCPAPEAAGGPSVFLFPPKPKDTLMISRTPEVTCVVVDVSQEDPEVQFNWYVDGVEVHNAKTKPREEQFNSTYRVVSVLTVLHQDWLNGKEYKCKVSNKGLPSSIEKTISKAKGQPREPQVCTLPPSQEEMTKNQVSLSCAVKGFYPSDIAVEWESNGQPENNYKTTPPVLDSDGSFFLVSRLTVDKSRWQEGNVFSCSVMHEALHNRFTQKSLSLSL
light: B1 light
notes: TA1 Fab, C17 VHH, IgG4 Fc KIH
B4: 104 (CEA-Knob+Fab-Hole) (bispecific antibody, human IgG4 S228P, kappa, F234A L235A)
chain: EVQLVESGGGFVQAGESLTLSCTSSTLTFTPYRMAWYRQAPGKQRDLVADISSGDGRTTNYADFAKGRFTISRDNIKNTVFLRMTNLKPEDTAVYYCNTFVSFVGIARSWGQGTQVTVSSESKYGPPCPPCPAPEAAGGPSVFLFPPKPKDTLMISRTPEVTCVVVDVSQEDPEVQFNWYVDGVEVHNAKTKPREEQFNSTYRVVSVLTVLHQDWLNGKEYKCKVSNKGLPSSIEKTISKAKGQPREPQVYTLPPCQEEMTKNQVSLWCLVKGFYPSDIAVEWESNGQPENNYKTTPPVLDSDGSFFLYSRLTVDKSRWQEGNVFSCSVMHEALHNHYTQKSLSLSL
heavy: B3 heavy
light: B1 light
notes: TA1 Fab, C17 VHH, IgG4 Fc KIH
B5: 103 (Fab-Knob+Hole-CEA) (bispecific antibody, human IgG4 S228P, kappa, F234A L235A)
heavy: B3 heavy with C354Y, S359C, S371W, A373L, V412Y, R440H, F441Y
chain: B3 chain with Y131C, C136S, W148S, L150A, Y189V, H217R, Y218F
light: B1 light
notes: TA1 Fab, C17 VHH, IgG4 Fc KIH
B6: 106 (Knob+Fab-Hole-CEA) (bispecific antibody, human IgG4 S228P, kappa, F234A L235A)
chain: B1 chain with C131Y, S136C, S148W, A150L, V189Y, R217H, F218Y
heavy: B1 heavy with Y354C, C359S, W371S, L373A, Y412V, H440R, Y441F
light: B1 light
notes: TA1 Fab, C17 VHH, IgG4 Fc KIH

Residue numbers refer to the chain shown, from its start.

One experiment concerns the target T1, human CD3ε/δ (ACRO systems, CDD-H52W1) (human, UniProt P07766 23-126; P04234 22-105).
T1 construct: bought recombinant heterodimer; also called human CD3 epsilon/delta; Human CD3ε/CD3δ
Nature of the experiment: serum-stability ELISA, Day 9 vs Day 0.
The molecule B1 had a Binding % of 100%.

As to B2, the Binding % was found to be 118%.

In turn, B3 returned a Binding % of 105%.

In turn, B4 returned a Binding % of 108%.

Consider B5, for which the Binding % was found to be 103%.

Molecule B6 displayed a Binding % of 112%.

In a further experiment the target is T1, human CD3ε/δ (ACRO systems, CDD-H52W1). As to the kind of experiment: serum-stability ELISA, Day 2 vs Day 0. On the technique in general: ELISA stands for enzyme-linked immunosorbent assay.
Experimental: (§1) The samples to be tested were centrifuged at 4° C. at 12000 rpm for 30 minutes to remove the precipitate. 200 μl of each sample to be tested (0.5 mg/ml) was collected in a 1.5 ml Eppendorf tube. An equal volume of human serum (GEMINI, H2OYOOK) was added, mixed thoroughly, and the mixture was incubated in a 37° C. constant temperature CO₂ incubator. For a total of 10 days, 40 μl samples was aspirated every day and stored at −20° C.
(§2) Enzyme-linked immunosorbent assay (ELISA) was used to test the bispecific antibodies' binding to human CEA and human CD3 epsilon/delta antigen. The steps are as follows: the antigen human CD3ε/δ (ACRO systems, CDD-H52W1) and the recombinant tumor antigen human CEA (CEACAM-5/CD66e, ACRO systems, CE5-H5226) were diluted to 1 μg/ml with PBS, and then added to the 96-well plate at 100 μl per well. The wells were coated overnight at 4° C. After washing 3 times with 0.05% PBST, 200 μl 5% skimmed milk powder was added to each well and incubated at 37° C. for 2 h. After washing 3 times with 0.05% PBST, 100 μl primary antibody sample (10 μg/ml) was added to each well, and incubated at 37° C. for 2 h. After washing 3 times with 0.05% PBST, 100 μl (1:6000) diluted secondary antibody goat anti-human Fc-HRP (sigma, A2170) was added to each well, incubated at room temperature for 1 h. After washing 8 times with 0.05% PBST, 50 μl TMB color developing solution was added to each well, and incubated at room temperature for 10-15 min. 50 μl 1 mM HCl was added to each well to stop the color development. 450 nm Absorbance (OD) was read.
(§3) The binding of antibodies to antigen was calculated according to the following formula: Binding (%)=[(ODdayn−ODb)/(ODday0−ODb)]×100%. ODdayn: experimental well (the protein was stored in the serum for n days); ODday0: control well (the protein was not stored in the serum); ODb: blank well (no primary antibody added).
B1 returned a Binding % of 111%.

Regarding B2, the Binding % amounted to 123%.

The molecule B3 gave a Binding % of 106%.

B4 came in with a Binding % of 110%.

B5 yielded a Binding % of 106%.

Take B6: the Binding % worked out at 115%.

The next experiment shares this target. As to the kind of experiment: serum-stability ELISA, Day 5 vs Day 0.
Regarding B1, the Binding % amounted to 108%.

As to B2, the Binding % amounted to 122%.

In the case of B3, the Binding % was determined as 107%.

For the molecule B4, the Binding % is 104%.

Regarding B5, the Binding % is 105%.

B6 returned a Binding % of 116%.

The target is the same in the next experiment. As to the kind of experiment: serum-stability ELISA, Day 6 vs Day 0.
Experimental: as §1, §2, §3
Take B1: the Binding % came to 110%.

B2 gave a Binding % of 123%.

In turn, B3 registered a Binding % of 104%.

Molecule B4 yielded a Binding % of 104%.

B5 returned a Binding % of 105%.

Molecule B6 gave a Binding % of 122%.

For a further experiment the target is unchanged. As to the kind of experiment: serum-stability ELISA, Day 1 vs Day 0.
Experimental: as §1, §2, §3
B1: the Binding % was determined as 106%.

On to B2, for which the Binding % came out at 118%.

Molecule B3 yielded a Binding % of 103%.

Turning to B4, the Binding % amounted to 107%.

The molecule B5 displayed a Binding % of 101%.

In the case of B6, the Binding % came out at 111%.

The target is the same in the next experiment. As to the kind of experiment: serum-stability ELISA, Day 0 (reference).
Experimental: as §1, §2, §3
With B1, the Binding % came to 100%.

For the molecule B2, the Binding % was 100%.

Consider B3, for which the Binding % amounted to 100%.

The molecule B4 registered a Binding % of 100%.

Consider B5, for which the Binding % was found to be 100%.

As for B6, the Binding % was 100%.

The target is the same in the next experiment. Nature of the experiment: serum-stability ELISA, Day 7 vs Day 0.
Experimental: as §1, §2, §3
B1 registered a Binding % of 105%.

As to B2, the Binding % was found to be 125%.

The molecule B3 came in with a Binding % of 101%.

On to B4, for which the Binding % is 103%.

The molecule B5 came in with a Binding % of 107%.

With B6, the Binding % is 118%.

Another experiment shares this target. Nature of the experiment: serum-stability ELISA, Day 10 vs Day 0.
Experimental: as §1, §2, §3
Regarding B1, the Binding % stood at 102%.

Consider B2, for which the Binding % was 102%.

Turning to B3, the Binding % came out at 99.2%.

For B4, the Binding % worked out at 107%.

B5 registered a Binding % of 100%.

In turn, B6 had a Binding % of 106%.

The values above are taken from US20240400715A1 (VIBRANT PHARMA, published 2024).
